Test results as given in article PMC8062585, “Machine learning guided aptamer refinement and discovery”.

biological target: T1, NGAL (UniProt P80188 21-198); experiment: bead-based fluorescence binding (flow cytometry); PBSMCT: DPBS with 2.5 mM MgCl2, 0.9 mM CaCl2, 0.01% Tween 20; room temperature, 1 h; bound NGAL detected with iFluor 647 anti-His antibody (6 nM); conditions: protein: commercial; tags: C-terminal His-tag; hairpin (predicted)
T1 sequence (P80188 21-198): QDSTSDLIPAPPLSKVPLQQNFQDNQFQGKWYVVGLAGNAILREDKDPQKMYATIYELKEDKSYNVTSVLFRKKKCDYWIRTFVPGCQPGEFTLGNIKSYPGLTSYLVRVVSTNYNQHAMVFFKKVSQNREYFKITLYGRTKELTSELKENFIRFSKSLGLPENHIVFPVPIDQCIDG

| Binder | Kd |
| --- | --- |
| ACGTTTTTGGTGGATAGCAAATG (ssDNA, 5' biotin) [G12.5 (G12_23)] | 11 nM |
| GAGGATTTGGTGGATAGTAAATC (ssDNA, 5' biotin) [G13.8 (G13_23)] | 1.5 nM |

biological target: T1, NGAL; experiment: bead-based fluorescence, 4-concentration estimate; PBSMCT: DPBS with 2.5 mM MgCl2, 0.9 mM CaCl2, 0.01% Tween 20; room temperature, 1 h; bound NGAL detected with iFluor 647 anti-His antibody (6 nM); conditions: protein: commercial; tags: C-terminal His-tag

| Binder | Kd |
| --- | --- |
| GTTTTTGGTGGATAGCAAA (ssDNA, 5' biotin) [G12.6] | < 32 nM |
| CAAGAGGATTTGGTGGATAGTAAATCTTTGCCTATCCAG (ssDNA, 5' biotin) [G13.1] | < 16 nM |
| CAAGAGGATTTGGTGGATAGTAAATCTTTGCCTAT (ssDNA, 5' biotin) [G13.2] | < 16 nM |
| CAAGAGGATTTGGTGGATAGTAAATCTTTGC (ssDNA, 5' biotin) [G13.3] | < 8 nM |
| GAGGATTTGGTGGATAGTAAATCTTTG (ssDNA, 5' biotin) [G13.4] | < 8 nM |
| AAGAGGATTTGGTGGATAGTAAATCTT (ssDNA, 5' biotin) [G13.5] | < 8 nM |
| AGAGGATTTGGTGGATAGTAAAT (ssDNA, 5' biotin) [G13.7] | < 16 nM |
| AGAGGATTTGGTGGATAGT (ssDNA, 5' biotin) [G13.11] | < 1020 nM |
| TTTGGTGGATAGTAA (ssDNA, 5' biotin) [G13.12] | < 256 nM |
| ACGTTTTTGGTGGATAGCAAATGCCAGGGCCCTTTTTTG (ssDNA, 5' biotin) [G12.1] | < 16 nM |
| ACGTTTTTGGTGGATAGCAAATGCCAGGGCCCTTT (ssDNA, 5' biotin) [G12.2] | < 32 nM |
| ACGTTTTTGGTGGATAGCAAATGCCAGGGCC (ssDNA, 5' biotin) [G12.3] | < 32 nM |
| ACGTTTTTGGTGGATAGCAAATGCCAG (ssDNA, 5' biotin) [G12.4] | < 16 nM |

same assay, conditions: protein: commercial; tags: C-terminal His-tag; hairpin (predicted)

| Binder | Kd |
| --- | --- |
| ACGTTTTTGGTGGATAGCAAATG (ssDNA, 5' biotin) [G12.5 (G12_23)] | < 16 nM |
| GAGGATTTGGTGGATAGTAAATC (ssDNA, 5' biotin) [G13.8 (G13_23)] | < 8 nM |
